Measured values reported in patent US20200317791A1 (Janssen / Centocor, published 2020).

Tests used:
[1] = target: T1, HLA-Cw6/TRAT on K562-rhHLA-Cw6 cells loaded with TRAT peptide (human, UniProt P10321 25-366); assay: cell-based or functional assay
T1 MHC heavy: […]
T1 peptide: TRATKMQVI

A24_A*24:02 = target: T2, A24_A*24:02 (human, UniProt A*24:02); assay: LABScreen beads
T2 construct: on LABScreen bead; also called HLA-A*24:02 (LABScreen class I bead)
T2 heavy chain: not shown

[2] = target: T3, rhHLA-B7 stably expressed on K562 cells (K562-rhHLA-B7) (human, UniProt P01889 25-362); assay: MSD cell binding
T3 construct: also called K562-rehHLA-B7
T3 sequence (P01889 25-362 limits assumed): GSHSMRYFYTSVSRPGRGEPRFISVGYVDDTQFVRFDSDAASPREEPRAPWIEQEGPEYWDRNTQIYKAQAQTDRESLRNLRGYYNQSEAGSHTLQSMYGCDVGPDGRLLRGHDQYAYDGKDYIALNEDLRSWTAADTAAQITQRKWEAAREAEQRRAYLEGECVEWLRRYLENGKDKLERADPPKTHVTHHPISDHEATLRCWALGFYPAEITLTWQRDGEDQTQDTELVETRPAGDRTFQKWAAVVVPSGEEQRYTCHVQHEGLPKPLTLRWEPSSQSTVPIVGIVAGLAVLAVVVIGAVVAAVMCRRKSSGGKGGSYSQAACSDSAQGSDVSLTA

[3] = target: T3, rhHLA-B7 stably expressed on K562 cells …; assay: MSD cell binding; remark: listed apart in the source
Method: (§1) The blocking buffer was aspirated, 20 μl of prepared test antibodies were added to appropriate wells, and the plate was incubated further for 1 hour at RT. The plate was washed three times with 80 μl PBS, and then each well received 20 μl/well of a 1 μg/ml SulfoTag labeled secondary detection antibody solution. After a 1-hour incubation at RT, the plate was washed three times with 80 μl PBS, and 50 μl/well of a 1× MSD Read Buffer T (surfactant free) (MSD #R92TD-1) was added and the plate was read on an MSD Sector 600 Plate Reader.

[4] = target: T4, rhHLA-Cw6 stably expressed on K562 cells (K562-rhHLA-Cw6) (human, UniProt P10321 25-366); assay: MSD cell binding
T4 construct: also called K562-HLA-Cw6
Method: as §1
T4 MHC heavy: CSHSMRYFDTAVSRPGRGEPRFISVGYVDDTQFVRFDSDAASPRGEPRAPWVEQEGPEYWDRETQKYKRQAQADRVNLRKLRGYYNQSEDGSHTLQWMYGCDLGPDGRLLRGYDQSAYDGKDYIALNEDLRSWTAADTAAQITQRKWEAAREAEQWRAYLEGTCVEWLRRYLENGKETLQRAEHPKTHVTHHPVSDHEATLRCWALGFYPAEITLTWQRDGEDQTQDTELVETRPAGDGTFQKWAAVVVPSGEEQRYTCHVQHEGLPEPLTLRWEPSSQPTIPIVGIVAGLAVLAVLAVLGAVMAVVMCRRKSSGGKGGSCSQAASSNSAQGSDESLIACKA

CW6W54.001 = assay: SPR Biacore 8K, captured mAb; Kinetic fit not valid
CW6W32 (rhHLA-Cw6/TRAT) [5] = target: T5, CW6W32 (rhHLA-Cw6/TRAT) (human); assay: as above
T5 construct: also called CW6W32.009; rHLA-Cw6/TRAT

CW6W55.ECO.PP.002 = assay: as above
[6] = target: T6, CW6W36 (rhHLA-Cw6/ADAMTSL5) (human); assay: SPR Biacore 8K, captured mAb; Acceptable fit
T6 construct: also called CW6W36.002; rHLA-Cw6/ADAMTSL5
From the text: (§2) To further characterize the ability of the antibodies to differentiate between class I MHC molecules.

CW6W56.ECO.PP.001 = assay: SPR Biacore 8K, captured mAb; Acceptable fit
From the text: as §2

CW6W47.001 = assay: SPR Biacore 8K, captured mAb; Acceptable fit
From the text: as §2

CW6W53.001 = assay: SPR Biacore 8K, captured mAb; Acceptable fit
From the text: as §2

CW6W51.001 = assay: SPR Biacore 8K, captured mAb; Acceptable fit
From the text: as §2

CW6W35.001 = assay: SPR Biacore 8K, captured mAb; Acceptable fit
From the text: as §2

CW6W32 (rhHLA-Cw6/TRAT) [7] = target: T5, CW6W32 (rhHLA-Cw6/TRAT); assay: SPR ProteOn XPR36, captured mAb; valid kinetic fit;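 also: Anti-HLA-Cw6 mAbs captured at 100–200 RU, antigen flowed in PBST, 180 s association and 900 s dissociation, double-referenced sensorgrams globally fit to a 1:1 Langmuir model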
Method: (§3) Anti-HLA-Cw6 mAbs were captured at ligand densities ranging from 100 to 200 response units. […] All analyses were conducted in PBST at 100 μL/min flow rate with association and dissociation times of 180 and 900 seconds, respectively. […] Analyte raw data was double referenced by subtraction of the blank surface response at “interspots” (to correct for refractive index changes and any non-specific interactions with the chip surface) and of the buffer blank response (to correct for any baseline drift resulting from mAb dissociation over time). Referenced data were globally fit to a 1:1 simple Langmuir binding model. Kinetic parameters were calculated for each mAb/antigen combination or interaction using Bio-Rad ProteOn Manager software (version 3.1.0.6) with parameter (kon, koff, Rmax) scope and type set to “Grouped” and “Fitted,” respectively.

[8] = target: T6, CW6W36 (rhHLA-Cw6/ADAMTSL5); assay: SPR ProteOn XPR36, captured mAb; valid kinetic fit;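 also: Anti-HLA-Cw6 mAbs captured at 100–200 RU, antigen flowed in PBST, 180 s association and 900 s dissociation, double-referenced sensorgrams globally fit to a 1:1 Langmuir model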
Method: as §3

[9] = target: T7, CW6W3.ECO.PP.002/.003 (rhHLA-Cw6/ARF) (human); assay: SPR ProteOn XPR36, captured mAb; valid kinetic fit;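 also: Anti-HLA-Cw6 mAbs captured at 100–200 RU, antigen flowed in PBST, 180 s association and 900 s dissociation, double-referenced sensorgrams globally fit to a 1:1 Langmuir model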
T7 construct: also called rhHLA-Cw6/ARFN; rHLA-Cw6/ARFN
Method: as §3

B1: CW6B237 (antibody, V domains shown)
VH: QVTLKESGPVLVKPTETLTLTCTVSGFSLSNARMGVSWIRQPPGKALEWLAHIFSHDEKFYSTFLKSRLTISKDTSKSQVVLMMTNMDPVDTATYYCARIILSSSGHDAFDIWGQGTMVTVSS
VL: AIQMTQSPSSLSASVGDRVTITCRASQDIRHNLGWYQQKPGKAPNLLIYAASSLQSGVPSRFSGSGSGTDFILTISSLQPEDFATFFCLQDYIYPLTFGGGTKVEIK
notes: also called CW6B237.001; CW6M237 (DNA ID)
In the case of B1, the “IC50 (read off the curve)” value [1] is reported as ~0.3 µg/mL and the binding result (A24_A*24:02) is reported as “no binding (tested: 10 µg/ml)”.

B2: CW6B233 (antibody, V domains shown)
VH: QVQLQESGPGLVKPSETLSLTCTVSGNSIRSYYWSWIRQPAGKGLEWIGRIYISGNTNYNPSLKSRVTMSIDTSKNQFSLKLSSVTAADTAVYYCARLSGIDAFDIWGQGTMVTVSS
VL: DIQMTQSPSSLSASVGDRVTITCQASQDITNYLNWYQQKPGKAPKLLIYDASNLETGVPSRFSGSGSGTDFTFTISSLQPEDFATYYCQQYDNLPITFGQGTRLEIK
notes: also called CW6B233.001; CW6M233 (DNA ID)
For B2, the binding result [2] was “no binding”, the “HLA-B7 Specific (K562-rhHLA-B7/K562 Parent binding signal)” value [3] was 0.8 ratio and the “HLA-Cw6 Selective (K562-rhHLA-Cw6 specific/K562-rhHLA-B7 specific)” value [4] was 44 ratio. The “HLA-Cw6 Specific (K562-rhHLA-Cw6/K562 Parent binding signal)” value [4] was 36 ratio, the Kd (CW6W54.001) was 0.798 nM and the koff (CW6W54.001) was 0.000484 s⁻¹. It also gave a kon (CW6W54.001) of 607000 M⁻¹ s⁻¹, a Kd (CW6W32 (rhHLA-Cw6/TRAT) [5]) of 3.73 nM and a koff (CW6W32 (rhHLA-Cw6/TRAT) [5]) of 0.00203 s⁻¹. The kon (CW6W32 (rhHLA-Cw6/TRAT) [5]) was 544000 M⁻¹ s⁻¹, the Kd (CW6W55.ECO.PP.002) was 7.3 nM and the koff (CW6W55.ECO.PP.002) was 1.22 s⁻¹. The kon (CW6W55.ECO.PP.002) was 1.67e+08 M⁻¹ s⁻¹, the Kd [6] was 3.82 nM and the koff [6] was 0.00433 s⁻¹. For the same binder, the kon [6] was 1.14e+06 M⁻¹ s⁻¹, the Kd (CW6W56.ECO.PP.001) was 1.26 nM and the koff (CW6W56.ECO.PP.001) was 0.00107 s⁻¹. For the same binder, the kon (CW6W56.ECO.PP.001) was 849000 M⁻¹ s⁻¹, the Kd (CW6W47.001) was 9.63 nM and the koff (CW6W47.001) was 0.00801 s⁻¹. It also gave a kon (CW6W47.001) of 832000 M⁻¹ s⁻¹, a Kd (CW6W53.001) of 2.09 nM and a koff (CW6W53.001) of 0.00073 s⁻¹. The kon (CW6W53.001) was 350000 M⁻¹ s⁻¹, the Kd (CW6W51.001) was 1.18 nM and the koff (CW6W51.001) was 0.000514 s⁻¹. For the same binder, the kon (CW6W51.001) was 437000 M⁻¹ s⁻¹, the Kd (CW6W35.001) was 3.59 nM and the koff (CW6W35.001) was 0.000758 s⁻¹. It also gave a kon (CW6W35.001) of 211000 M⁻¹ s⁻¹, a Kd (CW6W32 (rhHLA-Cw6/TRAT) [7]) of 1.55 nM and a koff (CW6W32 (rhHLA-Cw6/TRAT) [7]) of 0.00234 s⁻¹. The kon (CW6W32 (rhHLA-Cw6/TRAT) [7]) was 1.51e+06 M⁻¹ s⁻¹, the Kd [8] was 1 nM and the koff [8] was 0.00355 s⁻¹. For the same binder, the kon [8] was 3.56e+06 M⁻¹ s⁻¹, the Kd [9] was 0.29 nM and the koff [9] was 0.000293 s⁻¹. The kon [9] was 1.02e+06 M⁻¹ s⁻¹.

B3: CW6B228 (antibody, V domains shown)
VH: QVQLQESGPGLVKPSETLSLTCTVSGNSIRSYYWSWIRQPAGKGLEWIGRIYISGNTNYNPSLKSRVTMSIDTSKNQFSLKLSSVTAADTAVYYCARLSGIDAFDIWGQGTMVTVSS
VL: DIQMTQSPSSLSASVGDRVTITCQASQDINNYLNWYQQKPGKAPKLLIYDASSLETGVPSRFSGSGSGTDFTFTISSLQPEDFATYYCQQYDDLPITFGQGTRLEIK
notes: also called CW6B228.001; CW6M228 (DNA ID)
With B3 the binding result [2] was “no binding”, the “HLA-B7 Specific (K562-rhHLA-B7/K562 Parent binding signal)” value [3] was 1 ratio and the “HLA-Cw6 Selective (K562-rhHLA-Cw6 specific/K562-rhHLA-B7 specific)” value [4] was 78 ratio. The “HLA-Cw6 Specific (K562-rhHLA-Cw6/K562 Parent binding signal)” value [4] was 75 ratio, the Kd (CW6W32 (rhHLA-Cw6/TRAT) [7]) was 0.09 nM and the koff (CW6W32 (rhHLA-Cw6/TRAT) [7]) was 0.000534 s⁻¹. It also gave a kon (CW6W32 (rhHLA-Cw6/TRAT) [7]) of 5.98e+06 M⁻¹ s⁻¹, a Kd [8] of 0.05 nM and a koff [8] of 0.000732 s⁻¹. The kon [8] was 1.52e+07 M⁻¹ s⁻¹, the Kd [9] was 0.04 nM and the koff [9] was 0.000178 s⁻¹. The kon [9] was 4.89e+06 M⁻¹ s⁻¹.
